Experimental data published in PMC8997467.

Columns and labels:
Conditions in all cases: glycan lost; control: wild type
[1] = cell surface biotinylation, streptavidin pulldown, HeLa
[2] = anti-FLAG surface immunofluorescence, non-permeabilised HeLa
[3] = co-immunostaining with ER marker HA-PDIA4

Substance | localisation_or_trafficking, percent_of_wt [1] | localisation_or_trafficking, percent_of_wt [2] | localisation_or_trafficking [3]
Neuronal growth regulator 1 (NEGR1): 1MT (N307Q) | no change | – | –
Neuronal growth regulator 1 (NEGR1): N73Q | – | no change | –
Neuronal growth regulator 1 (NEGR1): N73Q/N155Q | abolishes | abolishes | changes
Neuronal growth regulator 1 (NEGR1): N155Q | – | no change | –
Neuronal growth regulator 1 (NEGR1): N275Q | – | no change | –
Neuronal growth regulator 1 (NEGR1): N286Q | – | no change | –
Neuronal growth regulator 1 (NEGR1): N294Q | – | no change | –
Neuronal growth regulator 1 (NEGR1): N307Q | – | no change | –
